“Also recorded” adds a separate entry of the source.
B1: Glychr19.trna2: top performing glycine ACE-tRNA UGA suppressor, SEQ ID NO: 53 (nucleic acid)
chain: GCGTTGGTGGTATAGTGGTTAGCATAGCTGCCTTCAAAGCAGTTGACCCGGGTTCGATTCCCGGCCAACGCA
modifications: chemistry not fully specified

How the values were obtained:
[1] = system: CFTR W1282X; experiment: Two-electrode voltage clamp of CFTR W1282X in Xenopus laevis oocytes; assay type: cell-based, human
Procedure: (§1) In vitro cRNA transcription. G542XUGA, W1282XUGA, and WT CFTR pGEMHE (Mense et al., 2006; PMID:1703051) plasmids were linearized by 10× excess of NheI-HF restriction enzyme (site positioned 3′ of coding region)(New England BioLabs, USA) for 3 hours at 37° C. and purified using standard cDNA precipition methods. All cRNAs were transcribed using the mMessage mMachine T7 Kit (ThermoFisher Scientific; USA). Purification of the cRNA from the transcription reaction was conducted on columns from the RNeasy Mini Kit (Qiagen, Germany). Concentration was determined by absorbance measurements at 260 nm and quality was confirmed on a 1% agarose gel (RNase-free). All cRNA was queued to […] before use and all results were generated from ≥2 cRNA preparations.
(§2) In vitro tRNA transcription. […] Equimolar concentration of T7 oligo (5)-taatacgactcactata-3′) was annealed to ACE-tRNA PAGE-purified Ultramers (20 ug; Integrated DNA Technologies, Coralville, Iowa) coding for the ACE-tRNA and preceded by a T7 promoter (italics). Importantly, the three terminal nucleotides containing CCA were included (bold).
The total reaction volume was adjusted to 100 μl and the kit reagents were added in the following amounts: 10 μl of 10X T7-Scribe transcription buffer, 7.5 μl of each nucleotide (100 mM stocks), 10 μl of 100 mM Dithiothreitol, 2.5 μl ScriptGuard RNase Inhibitor, 10 μl T7-Scribe enzyme solution. After the reaction was incubated for 4-5 hours at 37° C., the DNA template was digested with 5 μl DNase (1 U/μl) provided with the kit for 30-60 min. The ACE-tRNA was extracted from the reaction with acidic phenol chloroform (5:1, pH 4.5) and precipitated with ethanol. […]
(§3) Two-electrode voltage clamp (TEVC) recordings. CFTR Cl^− currents were recorded in ND96 bath solution that contained (in mM): 96 NaCl, 2 KCl, 1 MgCl2, and 5 HEPES (pH 7.5) in the presence of a maximal CFTR activation cocktail, forskolin ([…]; adenylate cyclase activator) and 3-isobutyl-1-methylxanthine (1 mM; phosphodiesterase inhibitor). […]

[2] = system: CFTR G542X; experiment: Two-electrode voltage clamp of CFTR G542X in Xenopus laevis oocytes; assay type: cell-based, human; details: for rescued CFTR current relative to WT CFTR: compared to WT CFTR cRNA 25 ng
Procedure: as §1, §2
The total reaction volume was adjusted to 100 μl and the kit reagents were added in the following amounts: 10 μl of 10X T7-Scribe transcription buffer, 7.5 μl of each nucleotide (100 mM stocks), 10 μl of 100 mM Dithiothreitol, 2.5 μl ScriptGuard RNase Inhibitor, 10 μl T7-Scribe enzyme solution. After the reaction was incubated for 4-5 hours at 37° C., the DNA template was digested with 5 μl DNase (1 U/μl) provided with the kit for 30-60 min. The ACE-tRNA was extracted from the reaction with acidic phenol chloroform (5:1, pH 4.5) and precipitated with ethanol. The precipitates ACE-tRNA was pelleted, washed, dried and resuspended in 100 μl DEPC-treated water and further purified with Chrorna Spin-30 columns (Clontech, USA). The procedure yielded roughly 100 μl of ˜5 μg/μl ACE-tRNA. ACE-tRNAs were re-pelleted in 20 ug aliquots, washed, lyophilized and stored at −80° C. until use. All results were generated from ≥2 ACE-tRNA preparations.
Expression in Xenopus laevis oocytes. Xenopus laevis oocytes (stage V and VI) were purchased from Ecocyte (Austin, Tex.). Prior to injection, each ACE-tRNA pellet was resuspended in 2 μl of ddH2O and debris was pelleted at 21,000×g, 4° C. for 25 min. […]
as §3

Molecule	Hill coefficient ([1]; W1282X dose response)	CFTR chloride conductance, suppression of UGA PTC ([1]; W1282X, 200 ng ACE-tRNA co-injected, forskolin and IBMX)	rescued CFTR current relative to WT CFTR ([1]; W1282X, compared to WT CFTR cRNA 25 ng)	Hill coefficient ([2]; G542X dose response)	CFTR chloride conductance, suppression of UGA PTC ([2]; G542X, 200 ng ACE-tRNA co-injected, forskolin and IBMX)	rescued CFTR current relative to WT CFTR ([2]; G542X)	rescued CFTR current relative to WT CFTR ([2]; G542X, listed as ACE-tRNAGly)
Trpchr17.trna39: top performing tryptophan ACE-tRNA UGA suppressor, SEQ ID NO: 48	1.24	highly efficacious	~50%	–	–	–	–
B1	–	–	–	~1.4	highly efficacious	WT-like current levels of expression	clear saturation at WT CFTR levels; also recorded: achieves WT-level of expressed CFTR current

Source: US20230203482A1, “Methods of Rescuing Stop Codons via Genetic Reassignment with ACE-tRNA” (THE WISTAR INSTITUTE OF ANATOMY AND BIOLOGY, priority 2017, published 2023)
